The source of these data is publication PMC5600342 (Biochemistry and Biophysics Reports, 2016).

The target in assay [1] is T1, Mouse nucleoplasmin M.NPM2 (full murine NPM2) (mouse, UniProt Q80W85 1-207).
T1 sequence: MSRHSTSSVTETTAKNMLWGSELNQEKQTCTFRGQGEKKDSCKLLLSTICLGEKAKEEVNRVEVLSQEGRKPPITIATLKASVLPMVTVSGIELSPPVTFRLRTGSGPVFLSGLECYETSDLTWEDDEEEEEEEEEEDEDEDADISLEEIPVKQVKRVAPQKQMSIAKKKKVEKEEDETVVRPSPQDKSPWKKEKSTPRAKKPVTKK
Kind of assay: cross-linking.

Assay [2] has as its target mouse P1+P2 (stoichiometric mixture containing equal amounts of protamines P1 and P2) (mouse). The assay can be described thus: native gel or EMSA. (Mobility shift assays separate free from complexed probe on a gel.)

Ends that are not written are not given here.

B1: Mouse protamine P1 (natural protein)
chain: MARYRC(pyridylethyl)C(pyridylethyl)RSKSRSRC(pyridylethyl)RRRRRRC(pyridylethyl)RRRRRRC(pyridylethyl)C(pyridylethyl)RRRRRRC(pyridylethyl)C(pyridylethyl)RRRRSYTIRC(pyridylethyl)KKY
In the case of B1, the binding result in assay [1] is given as “binds”.

B2: Mouse nucleoplasmin M.NPM2 (full murine NPM2) (natural protein)
chain: T1 sequence
On to B2, for which the stoichiometry N in assay [2] is 3 P1+P2:M.NPM2.

What is called stoichiometry N is a count of units in the complex or per binding partner.
